Assay results taken from US20220273751A1, “GPCR HETEROMER INHIBITORS AND USES THEREOF” (GPCR THERAPEUTICS, INC., priority 2019, published 2022).

Target: CXCR4 (C-X-C Motif Chemokine Receptor 4) (human) (UniProt P61073)
Experiment: cell-based or functional assay

CXCR4 (C-X-C Motif Chemokine Receptor 4) (human), sequence (P61073 whole entry): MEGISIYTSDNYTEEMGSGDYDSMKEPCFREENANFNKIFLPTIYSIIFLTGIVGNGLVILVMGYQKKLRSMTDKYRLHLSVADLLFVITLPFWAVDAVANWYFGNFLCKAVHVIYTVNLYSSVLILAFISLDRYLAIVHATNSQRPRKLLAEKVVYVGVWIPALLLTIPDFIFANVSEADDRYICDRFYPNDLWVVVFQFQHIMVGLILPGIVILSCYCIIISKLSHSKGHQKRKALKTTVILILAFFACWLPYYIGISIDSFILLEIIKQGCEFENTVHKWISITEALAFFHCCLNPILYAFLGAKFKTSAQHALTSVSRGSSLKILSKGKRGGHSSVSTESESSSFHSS

- IC50 of Ca2+ response, MDA-MB-231 cells expressing CXCR4 alone: 579 nM
- IC50 of Ca2+ response, MDA-MB-231 cells with CXCR4 + ADRB2, with Carvedilol 600 nM: 1.94 nM
- IC50 of Ca2+ response, MDA-MB-231 cells with CXCR4 + ADRB2, without Carvedilol: 88.7 nM
Substance: BKT140 (peptide)
